Reference: patent US7560527

Molecular target: natural cellular receptor for adenovirus on 293 human cells (human)
Assay: cell-based or functional assay

**Q.** “native Ad5 fiber carried by the recombinant AdLacZ virus (from UniProt P11818 1-581)” was tested. Which degree of inhibition of the infection of 293-cells with AdLacZ by recombinant Ad5 knob at 100 µg/ml did it give?
**A.** The degree of inhibition of the infection of 293-cells with AdLacZ by recombinant Ad5 knob at 100 µg/ml was 95%.
